Measured values from PMC5993538, “The plant-specific transcription factors CBP60g and SARD1 are targeted by a Verticillium secretory protein VdSCP41 to modulate immunity”.

Molecular target: T1, GST-CBP60g (Arabidopsis thaliana, UniProt F4K2R6 1-563)
T1 sequence: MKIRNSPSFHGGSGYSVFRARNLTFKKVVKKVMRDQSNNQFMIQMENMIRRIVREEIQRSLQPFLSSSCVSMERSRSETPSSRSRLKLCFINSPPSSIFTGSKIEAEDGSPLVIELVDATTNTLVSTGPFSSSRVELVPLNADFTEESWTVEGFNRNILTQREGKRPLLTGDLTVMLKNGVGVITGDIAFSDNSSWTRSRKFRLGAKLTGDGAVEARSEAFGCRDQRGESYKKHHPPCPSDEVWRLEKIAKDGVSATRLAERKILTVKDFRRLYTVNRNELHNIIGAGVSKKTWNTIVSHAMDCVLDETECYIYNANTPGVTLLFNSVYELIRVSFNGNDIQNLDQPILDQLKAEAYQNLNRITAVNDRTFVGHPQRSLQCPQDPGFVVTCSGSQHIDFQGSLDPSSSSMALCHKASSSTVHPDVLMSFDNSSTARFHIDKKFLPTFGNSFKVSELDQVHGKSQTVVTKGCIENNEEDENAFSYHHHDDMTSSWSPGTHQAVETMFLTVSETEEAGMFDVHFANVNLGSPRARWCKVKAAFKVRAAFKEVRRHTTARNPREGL
Test: EMSA; no effector; signal reduced by 150x unlabeled probe; 10 mM Tris-HCl pH 7.5, 50 mM KCl, 1 mM DTT, 50 ng poly[dI-dC], 20 ul, room temperature 30 min; 2 fmol probe, 4 ug GST-CBP60g; 5% native PAGE
Conditions: protein: recombinant; tags: N-terminal GST (pGEX-6p-1); label: 32P (5' end, T4 PNK); blunt

B1: ICS1 promoter 60-bp probe (dsDNA)
DNA 1: TGTGTAATTTGGTGGTTATTTCATAGAAATTTTGGGGAAATTGTTGCACCTCTCCACTCT
DNA 2: AGAGTGGAGAGGTGCAACAATTTCCCCAAAATTTCTATGAAATAACCACCAAATTACACA
binding result: binds
